This assay addresses rabbit muscle F-actin (polymerized rabbit muscle actin) (rabbit) (UniProt P68135). Put plainly: co-sedimentation.

Consider “bacterially expressed cortactin (p80 residues 55-526) after removal of GST with thrombin (domain or fragment)”, for which the fold increase of affinity against GST.p80 is 2 fold.
With “GST.p80 fusion protein (cortactin p80 residues 55-526) (domain or fragment)”, the stoichiometry N (actin monomers per GST.p80) stood at 14.

The values are drawn from article PMC2119758.
